According to US5866538A, “Insulin preparations containing NaCl” (Novo Nordisk A/S, priority 1996, dated 1999):

How the values were obtained:
[1] = Stability of Asp^B28 human insulin solutions with varying Zn, NaCl and pH (Example I); type: physicochemical; settings: 4 weeks at 37° C.
Protocol: Solutions containing 100 U/ml Asp^B28 human insulin, 2.6 mg/ml phenol, 16 mg/ml glycerol and varying amounts of Zn and sodium chloride were prepared. The pH was varied in the range of 7.2 to 7.5.

[2] = Stability tests of Asp^B28 human insulin preparations in Penfill cartridges, varying NaCl (Example II); type: physicochemical; settings: phosphate 13.5 mM, 19.6 μg Zn/100 U insulin, pH 7.4
Protocol: 370.4 mg AspB28 human insulin was dissolved in water by adding 1.6 ml 0.2N HCl and 49 μl zinc chloride solution (40 mg Zn/ml). 40 g of a solution containing 40 mg/ml glycerol, 3.75 mg/g phenol and 4.30 mg/g m-cresol was added to the insulin solution while mixing. 20 g of a solution containing a) 12.0 mg/g disodium phosphate dihydrate+5 μl/g 2N sodium hydroxide, b) 12.0 mg/g disodium phosphate dihydrate+5 μl/g 2N sodium hydroxide+5 mg/g sodium chloride or c) 12.0 mg/g disodium phosphate dihydrate+5 μl/g 2N sodium hydroxide+10 mg/g sodium chloride was added while mixing. pH was adjusted to pH 7.40±0.05 and water added up to 100 ml. The Asp^B28 Human insulin preparations were introduced into Penfill® cartridges and subjected to stability tests at 25° C. and 37° C. The stability data obtained at the two different temperatures and at a phosphate concentration of 13.5 mM, 19.6 μg Zn/100 U insulin and pH=7.4 are summarized in Table 2.

[3] = 13.1 μg Zn/100 U insulin, NaCl 0 mM, pH 7.2
[4] = 13.1 μg Zn/100 U insulin, NaCl 0 mM, pH 7.5
[5] = 13.1 μg Zn/100 U insulin, NaCl 5 mM, pH 7.2
[6] = 13.1 μg Zn/100 U insulin, NaCl 5 mM, pH 7.5
[7] = 13.1 μg Zn/100 U insulin, NaCl 20 mM, pH 7.2
[8] = 13.1 μg Zn/100 U insulin, NaCl 20 mM, pH 7.5
[9] = 16.3 μg Zn/100 U insulin, NaCl 0 mM, pH 7.2
[10] = 16.3 μg Zn/100 U insulin, NaCl 0 mM, pH 7.4
[11] = 16.3 μg Zn/100 U insulin, NaCl 5 mM, pH 7.2
[12] = 16.3 μg Zn/100 U insulin, NaCl 5 mM, pH 7.5
[13] = 16.3 μg Zn/100 U insulin, NaCl 20 mM, pH 7.2
[14] = 16.3 μg Zn/100 U insulin, NaCl 20 mM, pH 7.5
[15] = 19.6 μg Zn/100 U insulin, NaCl 0 mM, pH 7.2
[16] = 19.6 μg Zn/100 U insulin, NaCl 0 mM, pH 7.5
[17] = 19.6 μg Zn/100 U insulin, NaCl 5 mM, pH 7.2
[18] = 19.6 μg Zn/100 U insulin, NaCl 5 mM, pH 7.5
[19] = 19.6 μg Zn/100 U insulin, NaCl 20 mM, pH 7.2
[20] = 19.6 μg Zn/100 U insulin, NaCl 20 mM, pH 7.5
[21] = 22.8 μg Zn/100 U insulin, NaCl 0 mM, pH 7.2
[22] = 22.8 μg Zn/100 U insulin, NaCl 0 mM, pH 7.5
[23] = 22.8 μg Zn/100 U insulin, NaCl 5 mM, pH 7.2
[24] = 22.8 μg Zn/100 U insulin, NaCl 5 mM, pH 7.5
[25] = 22.8 μg Zn/100 U insulin, NaCl 20 mM, pH 7.2
[26] = 22.8 μg Zn/100 U insulin, NaCl 20 mM, pH 7.5
[27] = 8 months at 25° C., NaCl added 0 mM, total conc. of Cl^- 4.4
[28] = 8 months at 25° C., NaCl added 17 mM, total conc. of Cl^- 20.8
[29] = 8 months at 25° C., NaCl added 34 mM, total conc. of Cl^- 37.8
[30] = 8 weeks at 37° C., NaCl added 0 mM, total conc. of Cl^- 4.4
[31] = 8 weeks at 37° C., NaCl added 17 mM, total conc. of Cl^- 20.8
[32] = 8 weeks at 37° C., NaCl added 34 mM, total conc. of Cl^- 37.8

In the case of Asp^B28 human insulin, the “Asp^B28 Des-amido insulins formed” value [1, 3] is reported as 3.44%, the “Di- & polymers formed” value [1, 3] is reported as 1.35% and the “Asp^B28 Des-amido insulins formed” value [1, 4] is reported as 3.57%. The “Di- & polymers formed” value [1, 4] was 1.36%, the “Asp^B28 Des-amido insulins formed” value [1, 5] was 3.48% and the “Di- & polymers formed” value [1, 5] was 1.53%. For the same substance, the “Asp^B28 Des-amido insulins formed” value [1, 6] was 3.31%, the “Di- & polymers formed” value [1, 6] was 1.49% and the “Asp^B28 Des-amido insulins formed” value [1, 7] was 2.54%. The “Di- & polymers formed” value [1, 7] was 1.72%, the “Asp^B28 Des-amido insulins formed” value [1, 8] was 2.47% and the “Di- & polymers formed” value [1, 8] was 1.26%. The “Asp^B28 Des-amido insulins formed” value [1, 9] was 3.35%, the “Di- & polymers formed” value [1, 9] was 1.44% and the “Asp^B28 Des-amido insulins formed” value [1, 10] was 3.41%. For the same substance, the “Di- & polymers formed” value [1, 10] was 1.46%, the “Asp^B28 Des-amido insulins formed” value [1, 11] was 1.74% and the “Di- & polymers formed” value [1, 11] was 0.95%. For the same substance, the “Asp^B28 Des-amido insulins formed” value [1, 12] was 2.58%, the “Di- & polymers formed” value [1, 12] was 1.38% and the “Asp^B28 Des-amido insulins formed” value [1, 13] was 1.91%. For the same substance, the “Di- & polymers formed” value [1, 13] was 1.05%, the “Asp^B28 Des-amido insulins formed” value [1, 14] was 2.00% and the “Di- & polymers formed” value [1, 14] was 1.31%. The “Asp^B28 Des-amido insulins formed” value [1, 15] was 3.07%, the “Di- & polymers formed” value [1, 15] was 1.57% and the “Asp^B28 Des-amido insulins formed” value [1, 16] was 2.85%. For the same substance, the “Di- & polymers formed” value [1, 16] was 1.80%, the “Asp^B28 Des-amido insulins formed” value [1, 17] was 2.71% and the “Di- & polymers formed” value [1, 17] was 1.36%. For the same substance, the “Asp^B28 Des-amido insulins formed” value [1, 18] was 2.24%, the “Di- & polymers formed” value [1, 18] was 1.46% and the “Asp^B28 Des-amido insulins formed” value [1, 19] was 1.56%. For the same substance, the “Di- & polymers formed” value [1, 19] was 1.15%, the “Asp^B28 Des-amido insulins formed” value [1, 20] was 1.68% and the “Di- & polymers formed” value [1, 20] was 1.13%. For the same substance, the “Asp^B28 Des-amido insulins formed” value [1, 21] was 2.71%, the “Di- & polymers formed” value [1, 21] was 2.52% and the “Asp^B28 Des-amido insulins formed” value [1, 22] was 2.34%. The “Di- & polymers formed” value [1, 22] was 1.45%, the “Asp^B28 Des-amido insulins formed” value [1, 23] was 2.18% and the “Di- & polymers formed” value [1, 23] was 1.95%. For the same substance, the “Asp^B28 Des-amido insulins formed” value [1, 24] was 1.90%, the “Di- & polymers formed” value [1, 24] was 1.19% and the “Asp^B28 Des-amido insulins formed” value [1, 25] was 1.51%. For the same substance, the “Di- & polymers formed” value [1, 25] was 1.05%, the “Asp^B28 Des-amido insulins formed” value [1, 26] was 1.46% and the “Di- & polymers formed” value [1, 26] was 1.09%. The “Asp^B28 Des-amido insulins formed” value [2, 27] was 6.4%, the “Di- & polymers formed” value [2, 27] was 1.0% and the “Asp^B28 Des-amido insulins formed” value [2, 28] was 4.1%. For the same substance, the “Di- & polymers formed” value [2, 28] was 0.8%, the “Asp^B28 Des-amido insulins formed” value [2, 29] was 3.7% and the “Di- & polymers formed” value [2, 29] was 0.8%. The “Asp^B28 Des-amido insulins formed” value [2, 30] was 7.0%, the “Di- & polymers formed” value [2, 30] was 1.86% and the “Asp^B28 Des-amido insulins formed” value [2, 31] was 4.2%. The “Di- & polymers formed” value [2, 31] was 1.29%, the “Asp^B28 Des-amido insulins formed” value [2, 32] was 3.5% and the “Di- & polymers formed” value [2, 32] was 1.07%.
